The target of test [1] is HFBI–Protein A fusion protein (Trichoderma reesei | Staphylococcus aureus). The test can be described thus: QCM-D (quartz crystal microbalanc). Conditions: scale: moles of rituximab per mole of immobilized HFBI–Protein A.
For test [2], the target named is HFBII–Protein A fusion protein (Trichoderma reesei | Staphylococcus aureus). The test can be described thus: QCM-D (quartz crystal microbalanc). Conditions: scale: moles of rituximab per mole of immobilized HFBII–Protein A.
In test [3] the target is commercial Protein A (Sigma-Aldrich) (Staphylococcus aureus) (UniProt P38507). Briefly: QCM-D (quartz crystal microbalance with dissipation monitoring).

Consider one substance from article PMC5787837.

By stoichiometry N is commonly meant a count of units in the complex or per binding partner.

For rituximab (antibody), the results for the stoichiometry N in test [1], in test [2] and in test [3] were 1.5, 1.2 and 1.2, respectively.
